Measurements as given in US20140322220A1 (Bayer, published 2014).
Values belong to the binder of their own block, whether it stands above or below them. Numbered stars: 1 amine (or outer) side, 2 acyl side, 3 side chain; on linkers, the order of the positions; unused ones are H or OH. Square brackets hold non-standard residues; d marks the D form. Ends that are not written are not given here. * marks the point of attachment. Biotin = O=C1N[C@H]2[C@H](CS[C@H]2CCCCC(=O)*)N1; Ttds = O=C(CCC(=O)[*:2])NCCCOCCOCCOCCCN[*:1]

Key:
[1] = target: T1, mutated human FGFR2 on AN3-CA cells (human, UniProt P21802 22-821); experiment: FACS, 5 ug/ml, AN3CA cells
T1 construct: whole, on cells; also called AN3-CA (DSMZ-ACC 267)
T1 sequence (P21802 other isoform, or with tags, fused parts or gaps limits assumed, change not shown): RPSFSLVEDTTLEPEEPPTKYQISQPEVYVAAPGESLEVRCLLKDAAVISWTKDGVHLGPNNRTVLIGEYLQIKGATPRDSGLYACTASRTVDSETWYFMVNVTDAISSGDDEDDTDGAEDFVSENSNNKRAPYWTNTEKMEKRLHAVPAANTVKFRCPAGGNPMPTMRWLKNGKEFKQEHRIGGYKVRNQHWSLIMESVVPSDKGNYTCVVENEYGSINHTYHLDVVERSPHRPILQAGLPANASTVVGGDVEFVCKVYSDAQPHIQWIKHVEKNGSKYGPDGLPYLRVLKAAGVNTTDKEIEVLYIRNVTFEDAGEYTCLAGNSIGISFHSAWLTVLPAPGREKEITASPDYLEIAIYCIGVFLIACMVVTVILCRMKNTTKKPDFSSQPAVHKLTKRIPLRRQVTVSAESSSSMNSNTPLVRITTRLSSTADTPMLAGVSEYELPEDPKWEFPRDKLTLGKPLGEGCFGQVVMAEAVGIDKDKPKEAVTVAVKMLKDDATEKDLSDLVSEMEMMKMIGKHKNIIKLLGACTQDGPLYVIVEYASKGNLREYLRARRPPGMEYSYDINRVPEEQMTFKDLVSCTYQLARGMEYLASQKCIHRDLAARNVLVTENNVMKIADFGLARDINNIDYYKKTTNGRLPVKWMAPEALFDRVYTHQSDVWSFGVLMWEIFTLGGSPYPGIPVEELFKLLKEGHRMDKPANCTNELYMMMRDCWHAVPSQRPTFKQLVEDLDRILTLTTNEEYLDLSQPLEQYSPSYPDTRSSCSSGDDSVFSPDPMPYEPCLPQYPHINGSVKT
Method: (§1) To determine the binding characteristics of the anti-FGFR2 antibodies on mouse, rat and human cancer cell lines, binding was tested by flow cytometry to a panel of cell lines. Adherent cells were washed twice with PBS (without Ca and Mg) and detached by enzyme-free PBS based cell dissociation buffer (Invitrogen). Cells were suspended at approximately 10⁵ cells/well in FACS buffer (PBS without Ca/Mg, Biochrom containing 3% FCS, Biochrom). Cells were centrifuged (250 g, 5 min, 4° C.) and supernatant discarded. Cell were resuspended in dilutions of the antibodies of interest (5 μg/ml in 80 μl if not indicated otherwise) in FACS buffer, and incubated on ice for 1 h. […] After incubation for 1 h on ice cells were again washed with cold FACS buffer, resuspended in 100 μl FACS buffer and analyzed by flow cytometry using a FACS-Array (BD Biosciences). Results are calculated as Geo Mean of the detection by the antibody of interest subtracted by background fluorescence as measured by detection with the secondary antibody alone.

[2] = target: T2, mutated human FGFR2 on MFE-296 cells (human, UniProt P21802 22-821); experiment: FACS, 5 ug/ml, MFE296 cells
T2 construct: whole, on cells
T2 sequence (P21802 other isoform, or with tags, fused parts or gaps limits assumed, change not shown): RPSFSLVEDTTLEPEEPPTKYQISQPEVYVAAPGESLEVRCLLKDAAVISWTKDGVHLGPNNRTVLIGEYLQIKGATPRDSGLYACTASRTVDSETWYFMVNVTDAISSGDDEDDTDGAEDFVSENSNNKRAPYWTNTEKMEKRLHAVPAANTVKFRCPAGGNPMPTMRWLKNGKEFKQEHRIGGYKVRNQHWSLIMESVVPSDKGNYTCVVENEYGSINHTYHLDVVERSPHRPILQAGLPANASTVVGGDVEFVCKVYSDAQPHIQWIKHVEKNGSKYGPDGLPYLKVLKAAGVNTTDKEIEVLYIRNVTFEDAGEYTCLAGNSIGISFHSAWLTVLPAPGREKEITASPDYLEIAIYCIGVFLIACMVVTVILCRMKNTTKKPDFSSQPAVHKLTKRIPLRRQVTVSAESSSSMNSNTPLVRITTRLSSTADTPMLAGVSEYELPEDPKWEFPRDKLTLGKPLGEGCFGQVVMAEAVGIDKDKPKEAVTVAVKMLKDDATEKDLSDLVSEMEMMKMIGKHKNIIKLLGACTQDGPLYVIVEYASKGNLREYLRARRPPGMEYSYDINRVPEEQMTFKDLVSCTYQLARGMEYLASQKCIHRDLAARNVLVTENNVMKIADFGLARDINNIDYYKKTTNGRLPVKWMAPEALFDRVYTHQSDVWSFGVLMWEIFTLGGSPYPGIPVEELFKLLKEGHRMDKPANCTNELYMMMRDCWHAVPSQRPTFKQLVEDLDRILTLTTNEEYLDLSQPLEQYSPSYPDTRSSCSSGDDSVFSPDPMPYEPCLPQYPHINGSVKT
Method: as §1

rat FGFR2 on RUCA cells = target: T3, rat FGFR2 on RUCA cells (rat, UniProt F1LNW0 41-840); experiment: FACS, 5 ug/ml, RUCA cells
T3 construct: whole, on cells
Method: as §1

[3] = target: T4, RPSFSLVEDTTLEPEG-Ttds-Lys(Biotin) (human); experiment: peptide binding ELISA; against TPP-1415
T4 construct: Synthesized by JPT Peptide Technology
T4 peptide: RPSFSLVEDTTLEPEG[Ttds]K(Biotin)
Text: (§2) Two different types of ELISA were used to determine the binding improvement of mutated variants: a) Peptide Binding ELISA: a synthetic peptide comprising the amino acid sequence of the epitope linked C-terminally to a biotinylated lysine […]-Ttds-Lys(Biotin) (peptide sequence derived from SEQ ID NO:63, synthesized by JPT Peptide Technology GmbH, Berlin, Germany), and b) Recombinant Protein Binding ELISA: recombinant human FGFR2 (DNA sequence of human FGFR2 (NP 000132.3) Met 1-Glu 377, fused with a polyhistidine tag at the C-terminus; #10824-1-1081-1, Sin θ Biological Inc., Beijing, China).
(§3) Briefly, in both ELISA formats MTP plates (384 well Maxisorp, Nunc) were coated with 20 μl, anti-human IgG Fc specific (#12136; sigma) at 2.2 μg/ml for 2.5 h at 37° C. in coating buffer (#121125 Candor Bioscience GmbH). […] Anti-FGFR2 variants were immobilized in concentrations of 0.035 μg/ml (peptide based assay) or 0.2 μg/ml (recombinant human FGFR2 protein based assay) in 10% Smart Block in PBST depending on the format and variants to be analyzed by incubation of 20 μl for one hour at 20-22° C. […] After 3 washing steps 20 μl of 10 μM amplex red substrate (# A12222, Invitrogen) in 50 mM Sodium hydrogen phosphate, pH 7.6, were added and the fluorescence signal was detected using a common fluorescence reader, e.g. Tecan M1000. […]

[4] = target: T5, recombinant human FGFR2 (Met 1-Glu 377) with C-terminal polyhistidine tag (human, UniProt P21802 22-377); experiment: protein binding ELISA; against TPP-1415
T5 construct: The range is that of the expressed DNA and begins at Met 1; also called His-tagged FGFR2; recombinant human FGFR2-IIIc molecule
T5 sequence (P21802 22-377 limits assumed): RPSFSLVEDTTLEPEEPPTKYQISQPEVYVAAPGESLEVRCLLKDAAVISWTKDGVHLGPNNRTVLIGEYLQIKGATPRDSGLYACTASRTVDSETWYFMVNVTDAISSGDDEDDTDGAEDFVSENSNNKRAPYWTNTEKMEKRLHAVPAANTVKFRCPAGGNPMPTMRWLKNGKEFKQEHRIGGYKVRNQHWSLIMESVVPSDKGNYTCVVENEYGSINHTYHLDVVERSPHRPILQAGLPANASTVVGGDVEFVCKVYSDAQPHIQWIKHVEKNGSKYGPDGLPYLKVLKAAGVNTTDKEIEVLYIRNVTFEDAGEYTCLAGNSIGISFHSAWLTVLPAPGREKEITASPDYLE
Text: as §2
(§4) Briefly, in both ELISA formats MTP plates (384 well Maxisorp, Nunc) were coated with 20 μl, anti-human IgG Fc specific (#12136; sigma) at 2.2 μg/ml for 2.5 h at 37° C. in coating buffer (#121125 Candor Bioscience GmbH). […] Anti-FGFR2 variants were immobilized in concentrations of 0.035 μg/ml (peptide based assay) or 0.2 μg/ml (recombinant human FGFR2 protein based assay) in 10% Smart Block in PBST depending on the format and variants to be analyzed by incubation of 20 μl for one hour at 20-22° C. After one washing step using 50 μl PBST, 20 μl quadruplets of the antigen dilution series in 10% SmartBlock in PBST with a maximum concentration of 100 nM were added and incubated for 1 h at 20-22° C. and the washing step was repeated 3 times. For the detection of the biotinylated epitope peptide 20 μl of streptavidine/POD conjugate (# S5512, Sigma) in a 1:1000 dilution in 10% SmartBlock in PBST were applied for one hour at 20-22° C. For the detection of the recombinant FGFR2 protein 20 μl of anti-His/HRP conjugate (#71840, novagen) in a 1:10000 dilution in 10% SmartBlock in PBST were applied for one hour at 20-22° C. After 3 washing steps 20 μl of 10 μM amplex red substrate (# A12222, Invitrogen) in 50 mM Sodium hydrogen phosphate, pH 7.6, were added and the fluorescence signal was detected using a common fluorescence reader, e.g. Tecan M1000. EC50 values were evaluated by fitting the data (Sigmoida) dose-response, variable slope, bottom set to background; GraphPad Prism software).

[5] = target: T5, recombinant human FGFR2 (Met 1-Glu 377) …; experiment: protein binding ELISA, antibody captured by anti-human IgG Fc, FGFR2-His titrated
Text: as §2, §4

[6] = target: T4, RPSFSLVEDTTLEPEG-Ttds-Lys(Biotin); experiment: peptide binding ELISA, antibody captured by anti-human IgG Fc, biotinylated peptide titrated
Text: as §2, §4

[7] = target: T5, recombinant human FGFR2 (Met 1-Glu 377) …; experiment: protein binding ELISA; against TPP-1403
Text: as §2, §4

[8] = target: T4, RPSFSLVEDTTLEPEG-Ttds-Lys(Biotin); experiment: peptide binding ELISA, antibody captured by anti-human IgG Fc, biotinylated peptide titrated; against TPP-1403
Text: as §2, §3

[9] = target: T4, RPSFSLVEDTTLEPEG-Ttds-Lys(Biotin); experiment: peptide ELISA, IgG titration, anti-mouse IgG (Fc specific) POD detection

Geo Mean minus Geo Mean of secondary antibody alone (FACS) [1]: 100 to 1000 geomean | Geo Mean minus Geo Mean of secondary antibody alone (FACS) [2]: 1000 to 10000 geomean
B1: M054-A05-hIgG1 (antibody, V domains shown)
VH: EVQLLESGGGLVQPGGSLRLSCAASGFTFSNYGMYWVRQAPGKGLEWVAVISYDGTNKYYVDSVKGRFTISRDNSKNTLYLQMNSLRAEDTAVYYCAKDLPKWGGFDSWGQGTLVTVSS
VL: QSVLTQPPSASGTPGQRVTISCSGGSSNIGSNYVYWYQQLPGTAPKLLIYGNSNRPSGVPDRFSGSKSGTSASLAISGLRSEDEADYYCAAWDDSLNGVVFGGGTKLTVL
notes: Human IgG1

Geo Mean minus Geo Mean of secondary antibody alone (FACS) (rat FGFR2 on RUCA cells): 100 to 1000 geomean | Geo Mean minus Geo Mean of secondary antibody alone (FACS) [2]: 100 to 1000 geomean
B2: M021-H02-hIgG1 (antibody, V domains shown)
VH: EVQLLESGGGLVQPGGSLRLSCAASGFTFSNYGIHWVRQAPGKGLEWVAVISYDGSNKYYADSVKGRFTISRDNSKNTLYLQMNSLRAEDTAMYYCARDSSSAEDYWGQGTLVTVSS
VL: QSVLTQPPSASGTPGQRVTISCSGSSSNTGSNTVNWYQQLPGTAPKLLIYRNNQRPSGVPDRFSGSKSGTSASLAISGLRSEDEADYYCETWDSNTRGVVFGGGTKLTVL
notes: Human IgG1; also called M021-1-102-hIgG1; M021-1-102

Geo Mean minus Geo Mean of secondary antibody alone (FACS) (rat FGFR2 on RUCA cells): 100 to 1000 geomean | Geo Mean minus Geo Mean of secondary antibody alone (FACS) [2]: 100 to 1000 geomean
B3: M054-D03-hIgG1 (antibody, V domains shown)
VH: EVQLLESGGGLVQPGGSLRLSCAASGFTFSNYGMHWVRQAPGKGLEWVAVISYDGSNKYYADSVKGRFTISRDNSKNTLYLQMNSLRAEDTAVYYCAKETNDVPFDYWGQGTLVTVSS
VL: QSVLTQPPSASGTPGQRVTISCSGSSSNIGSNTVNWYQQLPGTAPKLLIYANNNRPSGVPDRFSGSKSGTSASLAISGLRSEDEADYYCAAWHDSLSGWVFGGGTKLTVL
notes: Human IgG1

fold EC50 reduction [3]: > 4 fold | fold signal [3]: 10 fold | fold EC50 reduction [4]: 27 fold | EC50 [5]: 0.29 nM | EC50 [6]: 2.5 nM
B4: TPP-1408 (antibody, human IgG1, lambda, V domains shown)
VH: EVQLLESGGGLVQPGGSLRLSCAASGFTFSHSGMHWVRQAPGKGLEWVAVISYDGSNKYYADSVKGRFTISRDNSKNTLYLQMNSLRAEDTAVYYCAREQPVYDFEYWGQGTLVTVSS
VL: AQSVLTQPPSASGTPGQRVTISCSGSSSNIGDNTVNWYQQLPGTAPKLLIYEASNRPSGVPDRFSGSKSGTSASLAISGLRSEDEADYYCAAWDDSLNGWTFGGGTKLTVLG
notes: Matured variant of M047-D08

Geo Mean minus Geo Mean of secondary antibody alone (FACS) (rat FGFR2 on RUCA cells): 100 to 1000 geomean | Geo Mean minus Geo Mean of secondary antibody alone (FACS) [1]: 100 to 1000 geomean | Geo Mean minus Geo Mean of secondary antibody alone (FACS) [2]: 1000 to 10000 geomean
B5: M017-B02-hIgG1 (antibody, V domains shown)
VH: EVQLLESGGGLVQPGGSLRLSCAASGFTFRTSGMHWVRQAPGKGLEWVAVISYDGSNKYYADSVKGRFTISRDNSKNTLYLQMNSLRAEDTAVYYCARESPGYDFEYWGQGTLVTVSS
VL: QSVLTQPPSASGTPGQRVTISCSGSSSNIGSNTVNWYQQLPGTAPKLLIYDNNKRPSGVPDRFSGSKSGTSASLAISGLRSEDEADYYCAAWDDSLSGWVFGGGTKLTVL
notes: Human IgG1

fold EC50 reduction [7]: 40 fold | EC50 [5]: 0.2 nM | EC50 [6]: 0.004 nM | fold EC50 reduction [8]: > 2300 fold
B6: TPP-1397 (antibody, human IgG1, lambda, V domains shown)
VH: EVQLLESGGGLVQPGGSLRLSCAASGFTFSSYAMSWVRQAPGKGLEWVSAISKSGGSTFYADSVKGRFTISRDNSKNTLYLQMNSLRAEDTAVYYCARVRYIWGEGDWFDPWGQGTLVTVSS
VL: AQSVLTQPPSASGTPGQRVTISCSGSSSNIGENYVSWYQQLPGTAPKLLIYENYKRSSGVPDRFSGSKSGTSASLAISGLRSEDEADYYCAAWDDSLNSWVFGGGTKLTVLG
notes: Matured variant of M048-D01

EC50 [9]: ≤ 1 nM
B7: M048-D01-mIgG2a (antibody)
heavy: EVQLLESGGGLVQPGGSLRLSCAASGFTFSSYAMSWVRQAPGKGLEWVSAISGSGTSTYYADSVKGRFTISRDNSKNTLYLQMNSLRAEDTAVYYCARVRYNWNHGDWFDPWGQGTLVTVSSAKTTAPSVYPLAPVCGDTTGSSVTLGCLVKGYFPEPVTLTWNSGSLSSGVHTFPAVLQSDLYTLSSSVTVTSSTWPSQSITCNVAHPASSTKVDKKIEPRGPTIKPCPPCKCPAPNLLGGPSVFIFPPKIKDVLMISLSPIVTCVVVDVSEDDPDVQISWFVNNVEVHTAQTQTHREDYNSTLRVVSALPIQHQDWMSGKEFKCKVNNKDLPAPIERTISKPKGSVRAPQVYVLPPPEEEMTKKQVTLTCMVTDFMPEDIYVEWTNNGKTELNYKNTEPVLDSDGSYFMYSKLRVEKKNWVERNSYSCSVVHEGLHNHHTTKSFSRTPGK
VL: QSVLTQPPSASGTPGQRVTISCSGSSSNIGNNYVSWYQQLPGTAPKLLIYENYNRPAGVPDRFSGSKSGTSASLAISGLRSEDEADYYCSSWDDSLNYWVFGGGTKLTVL
notes: Murine IgG2a format of M048-D01
